Laboratory results: US20240083996A1, “COMPOSITION FOR PROPHYLAXIS OR TREATMENT OF IL-8 RELATED DISEASES” (Chugai Seiyaku Kabushiki Kaisha, priority 2016, published 2024)

Key:
[1] = system: COPD; conditions: Am J Respir Crit Care Med. 2015; worsened in the placebo group; cited from earlier work
[2] = system: cystic fibrosis; conditions: J Cyst Fibros. 2013; cited from earlier work
[3] = known values for commercially available antibodies (FIG. 19); cited from earlier work
[4] = system: soluble forms of FcγRIa and FcγRIIIa in human and cynomolgus monkey; assay: Binding to various FcγRs (BIACORE T200); conditions: 20° C., HBS-EP+ (FIG. 27)
Protocol: Soluble FcγRIa and FcγRIIIa in both human and cynomolgus monkey were produced in the form of His-tagged molecules by methods known to those of ordinary skill in the art. […] Next, soluble FcγRIa or FcγRIIIa was injected with a running buffer (used as a reference solution), and was made to interact with the antibodies captured onto the sensor chip. HBS-EP+ (GE Healthcare) was used as the running buffer, and HBS-EP+ was also used to dilute the soluble FcγRIa or FcγRIIIa. […] All measurements were carried out at 20° C.

CC[C@@H](Nc1c(Nc2cccc(C(=O)N(C)C)c2O)c(=O)c1=O)c1ccc(C)o1 [MK7123]
pulmonary function (FEV1) in COPD patients [1]: pulmonary function (FEV1) was improved in the active drug group

O=C(Nc1ccc(Cl)c(S(=O)(=O)N2CCNCC2)c1O)Nc1cccc(F)c1Cl [Elubrixin]
topical neutrophil migration in cystic fibrosis [2]: Topical neutrophil migration was observed to be suppressed

Daclizumab [Zenapax]
frequency of ADA development in humans [3]: 14%

Alemtuzumab [Campath]
frequency of ADA development in humans [3]: 45%

B1: H1009/L395-F1886m: variable region of H1009/L395 with Fc variant F1886m (antibody)
heavy: QVQLVESGGGLVQPGGSLRLSCAASGFTFSDYYLSWVRQAPGKGLEWVGLIRNKDNYHTPEYSASVKGRFTISRDDSKNSLYLTMSDLKTEDTAVYYCARENHRYDVELAYWGQGTLVTVSSASTKGPSVFPLAPSSKSTSGGTAALGCLVKDYFPEPVTVSWNSGALTSGVHTFPAVLQSSGLYSLSSVVTVPSSSLGTQTYICNVNHKPSNTKVDKKVEPKSCDKTHTCPPCPAPELLGGPSVFLFPPKPKDTLMISRTPEVTCVVVDVSHEDPEVKFNWYVDGVEVHNAKTKPREEQYNSTYRVVSVLTVLHQDWLNGKEYKCKVSNKALPAPIEKTISKAKGQPREPQVYTLPPSREEMTKNQVSLTCLVKGFYPSDIAVEWESNGQPENNYKTTPPVLDSDGSFFLYSKLTVDKSRWQQGNVFSCSVLHEALHAHTTRKELSLSP
light: DIQMTQSPSSLSASVGDRVTITCRASEIIYSYLAWYQQKPGKAPKLLIYKAKTHADGVPSRFSGSGSGTDFTFTISSLQPEDIATYYCKHHFGFPRTFGQGTKVEIKRTVAAPSVFIFPPSDEQLKSGTASVVCLLNNFYPREAKVQWKVDNALQSGNSQESVTEQDSKDSTYSLSSTLTLSKADYEKHKVYACEVTHQGLSSPVTKSFNRGEC
binding to FcγRs (hFcγRIa, hFcγRIIIa, cynoFcγRIa, cynoFcγRIIIa) [4]: bind to all FcγRs
